Broadly, the EC50 (read off the curve) is the midpoint of the concentration-response curve. Read a low EC50 (read off the curve) as a more potent agent. For orientation: Kd means the constant that tells how readily two partners part at equilibrium.

This note sets out measurements from patent publication US20240101673A1 (MOZART THERAPEUTICS, published 2024).

Assay [1] addresses CD8 (Homo sapiens). Put plainly: titration on the CXCR3 CD39 CD8 T cell subset, gMFI (flow cytometry). Background: Flow cytometry measures light scatter and fluorescence of single cells or particles in a stream.
The target of assay [2] is CD8 (Homo sapiens). Briefly: titration on CD8+ T cells, gMFI (flow cytometry).
Assay [3] deals with T1, CD8alpha tagged with a hexahistidine peptide (UniProt P01732 22-182, limits assumed).
T1 construct: Soluble analyte in the Octet assays; not shown: hexahistidine tag (HHHHHH)
Briefly: BLI (Octet), antibody captured on AHC anti-human Fc biosensors, analyte 6.25-200 nM. On the procedure: The affinities of the parental antibodies anti-KIR2DL1/L2/L3 IPH2102 IgG1 r mAb and anti-CD8alpha Mb1 b IgG1r mAb were also analyzed. For kinetic analysis, the parental antibodies were separately captured to AHC (anti-human Fc) biosensors using a load concentration of 1.25 ug/ml. For IPH2102 IgG1r mAb, the KIR2DL1, or KIR2DL3 analytes ranged from 6.25 nM to 200 nM. Analyte binding following capture was analyzed first for association of KIR2DL1 or KIR2DL3 followed by the dissociation of each analyte independently. Likewise, for the Mb1b IgG1r mAb, the CD8alpha analyte ranged from 6.25 nM to 200 nM. Analyte binding following capture was analyzed first for association followed by the dissociation of CD8alpha.

The target in assay [4] is T2, KIR2DL3 tagged with a hexahistidine peptide (UniProt P43628 22-245, limits assumed).
T2 construct: Soluble analyte in the Octet assays; not shown: hexahistidine tag (HHHHHH)
Put plainly: BLI (Octet), CrossMAb captured on AHC anti-human Fc biosensors, analyte 6.25-200 nM. Background: Biolayer interferometry detects binding as a change in optical thickness at a sensor tip.

The target of assay [5] is T3, KIR2DL1 tagged with a hexahistidine peptide (UniProt P43626 22-245, limits assumed).
T3 construct: Soluble analyte in the Octet assays; also called KIRDL1; not shown: hexahistidine tag (HHHHHH)
Described as above.

Assay [6] deals with T1, CD8alpha tagged with a hexahistidine …. Described as above.

Chain of CD8 (Homo sapiens) (chain, as listed by the source): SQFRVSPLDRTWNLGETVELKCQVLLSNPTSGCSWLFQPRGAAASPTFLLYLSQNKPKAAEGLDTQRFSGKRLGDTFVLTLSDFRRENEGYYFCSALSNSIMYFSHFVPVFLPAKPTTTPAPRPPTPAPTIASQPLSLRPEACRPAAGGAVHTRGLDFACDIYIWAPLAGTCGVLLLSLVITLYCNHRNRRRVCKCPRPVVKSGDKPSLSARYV
T1 sequence (P01732 22-182 limits assumed): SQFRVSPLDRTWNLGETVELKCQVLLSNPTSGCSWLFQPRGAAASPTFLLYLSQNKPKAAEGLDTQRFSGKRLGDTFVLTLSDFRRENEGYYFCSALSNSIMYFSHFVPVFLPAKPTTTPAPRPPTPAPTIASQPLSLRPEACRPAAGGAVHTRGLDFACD
T2 sequence (P43628 22-245 limits assumed): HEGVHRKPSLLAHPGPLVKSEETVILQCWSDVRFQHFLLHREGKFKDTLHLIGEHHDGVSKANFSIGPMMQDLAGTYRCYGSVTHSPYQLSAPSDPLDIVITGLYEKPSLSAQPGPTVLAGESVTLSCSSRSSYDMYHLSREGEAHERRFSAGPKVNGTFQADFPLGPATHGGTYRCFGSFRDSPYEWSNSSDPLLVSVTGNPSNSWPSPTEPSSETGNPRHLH
T3 sequence (P43626 22-245 limits assumed): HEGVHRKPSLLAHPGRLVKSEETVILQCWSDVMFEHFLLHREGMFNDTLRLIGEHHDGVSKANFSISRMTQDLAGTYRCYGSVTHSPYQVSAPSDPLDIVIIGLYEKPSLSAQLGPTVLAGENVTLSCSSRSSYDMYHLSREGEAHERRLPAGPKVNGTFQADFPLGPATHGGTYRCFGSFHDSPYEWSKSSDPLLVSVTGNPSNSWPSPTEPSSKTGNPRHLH

B1: KIR2DLxCD8 bispecific (bispecific antibody)
chain 1: QVQLVQSGAEVKKPGSSVKVSCKASGGTFSFYAISWVRQAPGQGLEWMGGFIPIFGAANYAQKFQGRVTITADESTSTAYMELSSLRSDDTAVYYCARIPSGSYYYDYDMDVWGQGTTVTVSS
chain 2: EIVLTQSPVTLSLSPGERATLSCRASQSVSSYLAWYQQKPGQAPRLLIYDASNRATGIPARFSGSGSGTDFTLTISSLEPEDFAVYYCQQRSNWMYTFGQGTKLEIK
chain 3: EVQLVESGGGLVQPGGSLRLSCAASGFNIKDTYIHFVRQAPGKGLEWIGRIDPANDNTLYASKFQGKATISADTSKNTAYLQMNSLRAEDTAVYYCGRGYGYYVFDHWGQGTLVTVSS
chain 4: DVQITQSPSSLSASVGDRVTITCRTSRSISQYLAWYQQKPGKVPKLLIYSGSTLQSGVPSRFSGSGSGTDFTLTISSLQPEDVATYYCQQHNENPLTFGGGTKVEIK
With B1, the “EC50 (read off the curve)” value is around 100 nM in the assay with CD8 [1] and around 40 nM with CD8 [2].

B2: Mb1b IgG1 r mAb (antibody, V domains shown)
VH: EVQLVESGGGLVQPGGSLRLSCAASGFNIKDTYIHFVRQAPGKGLEWIGRIDPANDNTLYASKFQGKATISADTSKNTAYLQMNSLRAEDTAVYYCGRGYGYYVFDHWGQGTLVTVSS
VL: DVQITQSPSSLSASVGDRVTITCRTSRSISQYLAWYQQKPGKVPKLLIYSGSTLQSGVPSRFSGSGSGTDFTLTISSLQPEDVATYYCQQHNENPLTFGGGTKVEIK
notes: also called Mb1b parental antibody; anti-CD8alpha Mb1 b IgG1r mAb
Molecule B2 gave a Kd in assay [3] of 2.6 nM.

B3: IPH2102/Mb1b CrossMAb (bispecific antibody)
chain 1: QVQLVQSGAEVKKPGSSVKVSCKASGGTFSFYAISWVRQAPGQGLEWMGGFIPIFGAANYAQKFQGRVTITADESTSTAYMELSSLRSDDTAVYYCARIPSGSYYYDYDMDVWGQGTTVTVSS
chain 2: EIVLTQSPVTLSLSPGERATLSCRASQSVSSYLAWYQQKPGQAPRLLIYDASNRATGIPARFSGSGSGTDFTLTISSLEPEDFAVYYCQQRSNWMYTFGQGTKLEIK
chain 3: EVQLVESGGGLVQPGGSLRLSCAASGFNIKDTYIHFVRQAPGKGLEWIGRIDPANDNTLYASKFQGKATISADTSKNTAYLQMNSLRAEDTAVYYCGRGYGYYVFDHWGQGTLVTVSS
chain 4: DVQITQSPSSLSASVGDRVTITCRTSRSISQYLAWYQQKPGKVPKLLIYSGSTLQSGVPSRFSGSGSGTDFTLTISSLQPEDVATYYCQQHNENPLTFGGGTKVEIK
B3: the Kd was 0.88 nM in assay [4], 1.52 nM in assay [5] and 2.07 nM in assay [6].
